{
  "source": "patent US20100311648A1",
  "about": "(AstraZeneca / MedImmune, published 2010)",
  "key": {"[1]": {"target": "T1, human melanocortin-4 receptor (human, UniProt P32245 1-332)", "T1 construct": "whole, on cells; functional assay: HEK293-T-REx-MC4-R cells induced with 0.1 or 10 ng/mL doxycycline; also called hMC4-R; MC4-R", "T1 sequence (P32245 whole entry)": "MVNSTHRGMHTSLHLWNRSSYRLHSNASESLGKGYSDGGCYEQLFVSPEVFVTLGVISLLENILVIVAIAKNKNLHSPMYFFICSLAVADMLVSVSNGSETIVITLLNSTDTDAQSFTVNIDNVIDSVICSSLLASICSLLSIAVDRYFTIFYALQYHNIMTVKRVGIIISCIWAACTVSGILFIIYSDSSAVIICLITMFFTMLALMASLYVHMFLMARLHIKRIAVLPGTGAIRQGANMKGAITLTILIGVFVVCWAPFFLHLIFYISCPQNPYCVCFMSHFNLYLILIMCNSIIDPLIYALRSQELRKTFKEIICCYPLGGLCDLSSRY", "experiment": "[I125]-NDP-α-MSH competition, hMC4-R HEK-293 membranes", "experimental": "A competitive inhibition binding assay was performed for exemplified peptides according to the invention using membrane homogenates prepared from HEK-293 cells that express recombinant hMC4-R, hMC3-R, or hMC5-R, and from B-16 mouse melanoma cells (containing endogenous MC1-R). In some instances, HEK-293 cells that express recombinant hMC1-R were employed. Assays were performed in 96 well GF/B Millipore multiscreen filtration plates (MAFB NOB10) pre-coated with 0.5% bovine serum albumin (Fraction V). […] After incubation for 60 minutes at 37° C., the assay mixture was filtered and the membranes washed three times with ice-cold buffer. Filters were dried and counted in a gamma counter for bound radioactivity. […] Each assay was conducted in triplicate and the actual mean values are described, with results less than 0% reported as 0%. Ki values for test peptides of the present invention were determined using Graph-Pad Prism® curve-fitting software."}, "[2]": {"target": "T1, human melanocortin-4 receptor", "experiment": "cell-based or functional assay"}},
  "note": "Positions of bridges follow the written chain, without caps; N, C: chain ends. Non-standard residues stand in square brackets, D forms with d. dPhe(3,4,5-F3) = N[C@H](Cc1cc(F)c(F)c(F)c1)C(=O)O; dPhe(2-CF3) = N[C@H](Cc1ccccc1C(F)(F)F)C(=O)O; dPhe(3,5-F2) = N[C@H](Cc1cc(F)cc(F)c1)C(=O)O; dPhe(4-CN) = N#Cc1ccc(C[C@@H](N)C(=O)O)cc1; dPhe(3-Cl) = N[C@H](Cc1cccc(Cl)c1)C(=O)O; dPhe(2-Cl) = N[C@H](Cc1ccccc1Cl)C(=O)O; dPhe(2-Me) = Cc1ccccc1C[C@@H](N)C(=O)O; Orn = NCCC[C@H](N)C(=O)O",
  "data": [
    {"binder": "Ac-RER[dPhe(3-Cl)]RW[Orn]-NH2 (lactam 2-7; SMILES CC(=O)N[C@@H](CCCNC(=N)N)C(=O)N[C@H]1CCC(=O)NCCC[C@@H](C(N)=O)NC(=O)[C@H](Cc2c[nH]c3ccccc23)NC(=O)[C@H](CCCNC(=N)N)NC(=O)[C@@H](Cc2cccc(Cl)c2)NC(=O)[C@H](CCCNC(=N)N)NC1=O, also called No. 99)", "note": "[Ac-Arg-cyclo(Glu-Arg-D-Phe(3-Cl)-Arg-Trp-Orn)-NH2]", "values": [
      {"measurement": "Ki", "setting": "[1]", "value": 0.5, "unit": "nM"},
      {"measurement": "EC50, cAMP, 10 ng/mL Doxycycline", "setting": "[2]", "value": 0.14, "unit": "nM"},
      {"measurement": "Intrinsic Activity, cAMP, 0.1 ng/mL Doxycycline", "setting": "[2]", "value": 32, "unit": "%"},
      {"measurement": "Intrinsic Activity, cAMP, 10 ng/mL Doxycycline", "setting": "[2]", "value": 94, "unit": "%"}
    ]},
    {"binder": "Ac-REN[dPhe(2-CF3)]RW[Orn]-NH2 (lactam 2-7, also called No. 116)", "note": "[Ac-Arg-cyclo(Glu-Asn-D-Phe(2-CF3)-Arg-Trp-Orn)-NH2]", "values": [
      {"measurement": "Ki", "setting": "[1]", "value": 7, "unit": "nM"},
      {"measurement": "EC50, cAMP, 0.1 ng/mL Doxycycline", "setting": "[2]", "value": 0.68, "unit": "nM"},
      {"measurement": "EC50, cAMP, 10 ng/mL Doxycycline", "setting": "[2]", "value": 0.095, "unit": "nM"},
      {"measurement": "Intrinsic Activity, cAMP, 0.1 ng/mL Doxycycline", "setting": "[2]", "value": 77, "unit": "%"},
      {"measurement": "Intrinsic Activity, cAMP, 10 ng/mL Doxycycline", "setting": "[2]", "value": 104, "unit": "%"}
    ]},
    {"binder": "Ac-REN[dPhe(2-Me)]RW[Orn]-NH2 (lactam 2-7, also called No. 73)", "note": "[Ac-Arg-cyclo(Glu-Asn-D-Phe(2-Me)-Arg-Trp-Orn)-NH2]", "values": [
      {"measurement": "Ki", "setting": "[1]", "value": 4, "unit": "nM"},
      {"measurement": "EC50, cAMP, 0.1 ng/mL Doxycycline", "setting": "[2]", "value": 0.587, "unit": "nM"},
      {"measurement": "EC50, cAMP, 10 ng/mL Doxycycline", "setting": "[2]", "value": 0.068, "unit": "nM"},
      {"measurement": "Intrinsic Activity, cAMP, 0.1 ng/mL Doxycycline", "setting": "[2]", "value": 86, "unit": "%"},
      {"measurement": "Intrinsic Activity, cAMP, 10 ng/mL Doxycycline", "setting": "[2]", "value": 102, "unit": "%"}
    ]},
    {"binder": "Ac-REN[dPhe(3,4,5-F3)]RW[Orn]-NH2 (lactam 2-7, also called No. 95)", "note": "[Ac-Arg-cyclo(Glu-Asn-D-Phe(3,4,5-triF)-Arg-Trp-Orn)-NH2]", "values": [
      {"measurement": "Ki", "setting": "[1]", "value": 3, "unit": "nM"},
      {"measurement": "EC50, cAMP, 0.1 ng/mL Doxycycline", "setting": "[2]", "value": 1, "unit": "nM"},
      {"measurement": "EC50, cAMP, 10 ng/mL Doxycycline", "setting": "[2]", "value": 0.125, "unit": "nM"},
      {"measurement": "Intrinsic Activity, cAMP, 0.1 ng/mL Doxycycline", "setting": "[2]", "value": 42, "unit": "%"},
      {"measurement": "Intrinsic Activity, cAMP, 10 ng/mL Doxycycline", "setting": "[2]", "value": 100, "unit": "%"}
    ]},
    {"binder": "Ac-REN[dPhe(3,5-F2)]RW[Orn]-NH2 (lactam 2-7, also called No. 76)", "note": "[Ac-Arg-cyclo(Glu-Asn-D-Phe(3,5-diF)-Arg-Trp-Orn)-NH2]", "values": [
      {"measurement": "Ki", "setting": "[1]", "value": 20, "unit": "nM"},
      {"measurement": "EC50, cAMP, 0.1 ng/mL Doxycycline", "setting": "[2]", "value": 3, "unit": "nM"},
      {"measurement": "EC50, cAMP, 10 ng/mL Doxycycline", "setting": "[2]", "value": 0.135, "unit": "nM"},
      {"measurement": "Intrinsic Activity, cAMP, 0.1 ng/mL Doxycycline", "setting": "[2]", "value": 53, "unit": "%"},
      {"measurement": "Intrinsic Activity, cAMP, 10 ng/mL Doxycycline", "setting": "[2]", "value": 85, "unit": "%"}
    ]},
    {"binder": "Ac-REN[dPhe(4-CN)]RW[Orn]-OH (lactam 2-7, also called No. 85)", "note": "[Ac-Arg-cyclo(Glu-Asn-D-Phe(4-CN)-Arg-Trp-Orn)-OH]", "values": [
      {"measurement": "Ki", "setting": "[1]", "value": 64, "unit": "nM"},
      {"measurement": "EC50, cAMP, 0.1 ng/mL Doxycycline", "setting": "[2]", "value": 15, "unit": "nM"},
      {"measurement": "EC50, cAMP, 10 ng/mL Doxycycline", "setting": "[2]", "value": 0.707, "unit": "nM"},
      {"measurement": "Intrinsic Activity, cAMP, 0.1 ng/mL Doxycycline", "setting": "[2]", "value": 36, "unit": "%"},
      {"measurement": "Intrinsic Activity, cAMP, 10 ng/mL Doxycycline", "setting": "[2]", "value": 94, "unit": "%"}
    ]},
    {"binder": "Ac-REE[dPhe(4-CN)]RW[Orn]-OH (lactam 2-7)", "note": "[Ac-Arg-cyclo(Glu-Glu-D-Phe(4-CN)-Arg-Trp-Orn)-OH]", "values": [
      {"measurement": "Ki", "setting": "[1]", "value": 1090, "unit": "nM"},
      {"measurement": "EC50, cAMP, 10 ng/mL Doxycycline", "setting": "[2]", "value": 269, "unit": "nM"},
      {"measurement": "Intrinsic Activity, cAMP, 0.1 ng/mL Doxycycline", "setting": "[2]", "value": 2, "unit": "%"},
      {"measurement": "Intrinsic Activity, cAMP, 10 ng/mL Doxycycline", "setting": "[2]", "value": 69, "unit": "%"}
    ]},
    {"binder": "Ac-REK[dPhe(3-Cl)]RW[Orn]-NH2 (lactam 2-7; SMILES CC(=O)N[C@@H](CCCNC(=N)N)C(=O)N[C@H]1CCC(=O)NCCC[C@@H](C(N)=O)NC(=O)[C@H](Cc2c[nH]c3ccccc23)NC(=O)[C@H](CCCNC(=N)N)NC(=O)[C@@H](Cc2cccc(Cl)c2)NC(=O)[C@H](CCCCN)NC1=O, also called No. 100)", "note": "[Ac-Arg-cyclo(Glu-Lys-D-Phe(3-Cl)-Arg-Trp-Orn)-NH2]", "values": [
      {"measurement": "Ki", "setting": "[1]", "value": 4, "unit": "nM"},
      {"measurement": "EC50, cAMP, 0.1 ng/mL Doxycycline", "setting": "[2]", "value": 6, "unit": "nM"},
      {"measurement": "EC50, cAMP, 10 ng/mL Doxycycline", "setting": "[2]", "value": 0.27, "unit": "nM"},
      {"measurement": "Intrinsic Activity, cAMP, 0.1 ng/mL Doxycycline", "setting": "[2]", "value": 27, "unit": "%"},
      {"measurement": "Intrinsic Activity, cAMP, 10 ng/mL Doxycycline", "setting": "[2]", "value": 93, "unit": "%"}
    ]},
    {"binder": "Ac-REP[dPhe(2-Cl)]RW[Orn]-NH2 (lactam 2-7; SMILES CC(=O)N[C@@H](CCCNC(=N)N)C(=O)N[C@H]1CCC(=O)NCCC[C@@H](C(N)=O)NC(=O)[C@H](Cc2c[nH]c3ccccc23)NC(=O)[C@H](CCCNC(=N)N)NC(=O)[C@@H](Cc2ccccc2Cl)NC(=O)[C@@H]2CCCN2C1=O, also called No. 88)", "note": "[Ac-Arg-cyclo(Glu-Pro-D-Phe(2-Cl)-Arg-Trp-Orn)-NH2]", "values": [
      {"measurement": "Ki", "setting": "[1]", "value": 5, "unit": "nM"},
      {"measurement": "EC50, cAMP, 10 ng/mL Doxycycline", "setting": "[2]", "value": 0.35, "unit": "nM"},
      {"measurement": "Intrinsic Activity, cAMP, 0.1 ng/mL Doxycycline", "setting": "[2]", "value": 15, "unit": "%"},
      {"measurement": "Intrinsic Activity, cAMP, 10 ng/mL Doxycycline", "setting": "[2]", "value": 89, "unit": "%"}
    ]},
    {"binder": "Ac-RES[dPhe(3-Cl)]RW[Orn]-NH2 (lactam 2-7, also called No. 35)", "note": "[Ac-Arg-cyclo(Glu-Ser-D-Phe(3-Cl)-Arg-Trp-Orn)-NH2]", "values": [
      {"measurement": "Ki", "setting": "[1]", "value": 10, "unit": "nM"},
      {"measurement": "EC50, cAMP, 10 ng/mL Doxycycline", "setting": "[2]", "value": 1, "unit": "nM"},
      {"measurement": "Intrinsic Activity, cAMP, 0.1 ng/mL Doxycycline", "setting": "[2]", "value": 6, "unit": "%"},
      {"measurement": "Intrinsic Activity, cAMP, 10 ng/mL Doxycycline", "setting": "[2]", "value": 84, "unit": "%"}
    ]},
    {"binder": "Ac-RET[dPhe(2-Cl)]RW[Orn]-NH2 (lactam 2-7; SMILES CC(=O)N[C@@H](CCCNC(=N)N)C(=O)N[C@H]1CCC(=O)NCCC[C@@H](C(N)=O)NC(=O)[C@H](Cc2c[nH]c3ccccc23)NC(=O)[C@H](CCCNC(=N)N)NC(=O)[C@@H](Cc2ccccc2Cl)NC(=O)[C@H]([C@@H](C)O)NC1=O, also called No. 32)", "note": "[Ac-Arg-cyclo(Glu-Thr-D-Phe(2-Cl)-Arg-Trp-Orn)-NH2]", "values": [
      {"measurement": "Ki", "setting": "[1]", "value": 11, "unit": "nM"},
      {"measurement": "EC50, cAMP, 0.1 ng/mL Doxycycline", "setting": "[2]", "value": 18, "unit": "nM"},
      {"measurement": "EC50, cAMP, 10 ng/mL Doxycycline", "setting": "[2]", "value": 0.543, "unit": "nM"},
      {"measurement": "Intrinsic Activity, cAMP, 0.1 ng/mL Doxycycline", "setting": "[2]", "value": 34, "unit": "%"},
      {"measurement": "Intrinsic Activity, cAMP, 10 ng/mL Doxycycline", "setting": "[2]", "value": 96, "unit": "%"}
    ]},
    {"binder": "Ac-RET[dPhe(3-Cl)]RW[Orn]-NH2 (lactam 2-7; SMILES CC(=O)N[C@@H](CCCNC(=N)N)C(=O)N[C@H]1CCC(=O)NCCC[C@@H](C(N)=O)NC(=O)[C@H](Cc2c[nH]c3ccccc23)NC(=O)[C@H](CCCNC(=N)N)NC(=O)[C@@H](Cc2cccc(Cl)c2)NC(=O)[C@H]([C@@H](C)O)NC1=O, also called No. 36)", "note": "[Ac-Arg-cyclo(Glu-Thr-D-Phe(3-Cl)-Arg-Trp-Orn)-NH2]", "values": [
      {"measurement": "Ki", "setting": "[1]", "value": 6, "unit": "nM"},
      {"measurement": "EC50, cAMP, 10 ng/mL Doxycycline", "setting": "[2]", "value": 1, "unit": "nM"},
      {"measurement": "Intrinsic Activity, cAMP, 0.1 ng/mL Doxycycline", "setting": "[2]", "value": 8, "unit": "%"},
      {"measurement": "Intrinsic Activity, cAMP, 10 ng/mL Doxycycline", "setting": "[2]", "value": 89, "unit": "%"}
    ]}
  ]
}
